In series [1] the target is PHF14 PZP domain, 278-487. Description: ITC. The note with it: reference: unmodified H3(1-15) peptide; sites T3.
Series [2] has as its target Zebrafish PHF14PZP (278–487) (zebrafish). In words: ITC. (ITC needs no label: the signal is the heat of the interaction.)
For series [3], the target named is T1, Zebrafish PHF14PZP (278–487) (zebrafish, UniProt A0A286Y9D1 278-487).
T1 sequence: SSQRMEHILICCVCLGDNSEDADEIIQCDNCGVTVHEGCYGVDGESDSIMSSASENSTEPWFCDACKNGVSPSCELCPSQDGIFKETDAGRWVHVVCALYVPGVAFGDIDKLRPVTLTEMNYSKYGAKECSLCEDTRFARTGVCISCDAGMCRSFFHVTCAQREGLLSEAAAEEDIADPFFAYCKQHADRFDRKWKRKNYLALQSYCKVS
Description: crystal structure.

The next series is described as follows: Thermal shift assay. The series is classed as physicochemical. The note with it: 2 mg/ml protein, 5× Sypro Orange, 100 mM NaCl, 20 mM HEPES-Na pH 7.5, 25°C to 90°C at 0.5°C per minute.
The target of another series is T2, PHF14PZP E301A (zebrafish, UniProt A0A286Y9D1 278-487, E301A).
T2 sequence: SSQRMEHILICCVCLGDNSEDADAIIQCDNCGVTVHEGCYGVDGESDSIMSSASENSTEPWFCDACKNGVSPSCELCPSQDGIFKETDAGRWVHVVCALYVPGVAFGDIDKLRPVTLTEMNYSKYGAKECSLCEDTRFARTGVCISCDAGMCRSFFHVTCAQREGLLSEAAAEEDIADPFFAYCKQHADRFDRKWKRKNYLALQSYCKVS
In words: ITC.

Turning to “histone H3 1-15 (from UniProt P68431) H3(1-15) T3ph peptide”, the KD entry in series [1] is reported as “lost; reference 12.7”.

For the molecule “unmodified histone H3(1–15) peptide (from UniProt P68431 2-16)”, in series [2], the Kd turned out to be 12.7 µM. Consider ARTKQTARKSTGG [histone H3(1–13), as joined to PHF14PZP in the fusion protein], for which the binding result in series [3] is listed as “binds”.

B1: H3(1–13)-PHF14PZP: chimeric protein: H3(1–13) fused to the N-terminus of PHF14PZP (aa 278–487) through an 'SGSGS' linker (protein)
chain: ARTKQTARKSTGGSGSGSSSQRMEHILICCVCLGDNSEDADEIIQCDNCGVTVHEGCYGVDGESDSIMSSASENSTEPWFCDACKNGVSPSCELCPSQDGIFKETDAGRWVHVVCALYVPGVAFGDIDKLRPVTLTEMNYSKYGAKECSLCEDTRFARTGVCISCDAGMCRSFFHVTCAQREGLLSEAAAEEDIADPFFAYCKQHADRFDRKWKRKNYLALQSYCKVS
modifications: left off: 10xHis-SUMO, N-terminal, cleaved
With B1, the “positive Tm shift versus free state PHF14PZP” value in the series “Thermal shift assay” worked out at 3.2 °C.

Regarding ARTKQTARKSTGGKA [unmodified histone H3(1–15) peptide], in the series with PHF14PZP E301A, the “fold decrease of affinity against wild-type PHF14PZP” value was around 28 fold.

One may read the Kd as a measure of binding affinity in units of concentration. High values mean a looser complex, low ones a tighter complex.

Source of the values: PMC8421203 (Nucleic Acids Research, 2021).
